pKd: −log10 of the molar value.

The target of experiment [1] is OmpF (Escherichia coli) (UniProt P02931). As to the kind of experiment: ITC. The settings on record: cited from earlier work.
For experiment [2], the target named is OmpF trimer (Escherichia coli (endogenous in B^E3000)) (UniProt P02931). As to the kind of experiment: ITC. Background: ITC needs no label: the signal is the heat of the interaction.

The term pKd denotes the Kd on a negative log10 scale, so that one unit is a factor of ten. Take Colicin E9 OBS2 peptide: in experiment [1], the pKd is 4.62. As a reminder, the stoichiometry N is a count of units in the complex or per binding partner. In experiment [2], “(OBS2)3, TMEA-mediated tridentate OBS2 in the form of a colicin DNase fusion (S71C ColE9^53–83-DNase) (from UniProt P09883 53-83)” showed a negative logarithm of the Kd (pKd) of 6.32, a dH of -5.64 kcal·mol^–1 and a stoichiometry N of 3. Turning to “Colicin E9 OBS1 peptide OBS1 (from UniProt P09883)”, in experiment [1], the pKd was 5.70.

Values taken from article PMC6093495.
